Patent US20170101442A1 (published 2017)

Columns and labels:
515 = experiment: cell binding (labeled cells %); HSC-T6 cells; apparent Kd
422 = experiment: as above

B1: HSC-T6 cells (receptor)
chain: QAVDLDALCSYTWEAVDSKNNAVYKINPCGHVDNPRCGPTSAVCMCDLKSENCRSVGDSLLRSSAKSLLEFNTTTGCQPSEHRIQTSITFLCGKTLGTPEFVTATDCVHYFEWRTTAACKKDIFKADKEVPCYVFDDKLQKHDLNPLIKLNGGYLVDDSDADASLFINVCRDIDSLRDPSTQLRVCPAGTAACLLKGNQAFDVGRPKEGLKLLSKDRLVLTYVKEEGEKPDFCNGHSPAVTVTFVCPSERREGTIPKLTAKSNCRYEVEWITEYACHRDYLESETCSLSSEQHDIAIDLSPLAQHEEGSPYVADGGEYRFFMNVCGDTKVSLCNKEAAVCQEKKVDSTQVKIAGRHQNQTLRYSDGDLTLIYSGGDECSSGFQRMSVINFECNKTAGQDGRGEPVFTGEVDCTYFFTWDTKYACVKEKEDLLCGAIDGKKRYDLSVLARHSESEQNWEAVDGSQAESEKRNFFINVCHRVLQAGKAKNCPEGAAVCAVDKSGSKNLGKFVSSPTKEKGHIQLSYSDGDDCGNDKKITTNITFVCKPGDLESAPVLRAAGPDGCSYEFEWHTAAACVLSQTEGENCTVLDAQAGFSFDLSLLTKKNGAYKVETDKYDFYINVCGPVSVNLCQSNSGACQVAKSGKSWNLGLSNTKLTYYDGMIQLSYRNGTLYNNEKHTPRSTLITFLCDRDAGVGFPEYQEEDNSTYNFRWYTSYACPEEPLECMVTDPSMMEQYDLSSLVKFEGGRGGNWYAMENSREHFTRRKYYLNVCRPLNPVPGCDRYASACQMKYENNEGSLAETVAISNLGVAKTGPVVEESGSLLLEYVNGSACTTSDGRLTTYSTRIHLVCGRGTMNSHPIFTFNWECVVSFLWNTEAACPIQTITDSDQACSIRDPNSGFVFNLSPLNYSQGHMVLGIGKTFVFNICGTMPACGTVAGKPALGCEAETKIKDIKDLKPERPVGMEKSLQLSAEGFLTLTYKGSSPSDRGTAFIIRFICNGDIYPGTPKFLHQDIDSARGIRNTFFEFETALACIPSVVDCQVTDPAGNEYDLSALSMVRKPWTAVDTSVHGKKRRFYLSVCTPLPYIPGCDGIAMGSCMVSEDKSQNLGVVQISPQATGNGSLSILYVNGDRCGNQRYSTRIVFECAQTSGSPMFQLLNNCEYVFVWRTVEACPVVREEGDNCQVKDPRHGNLYDLKPLALNDTIISAGEYTYYFRVCGKLSLDVCSAHDGSKAVSSCQEKKGPQGFQKVAGLLNQKLTFENGLLKMNYSGGDTCHKVYQRSTTIYFYCDRTTQKPVFLKETLDCSYLFEWRTQYACPPFNVTECSIQDEAGNSIDLSSLSRYSDNWEAVTRTGATEHYLINVCKSLSPQAGTDPCPPEAAVCLLDGSKPVNLGRVRDGPQWTAGVTVLKYVDGDLCPDKIRKRSTIIRFTCSDSQVNSRPLFISAVQDCEYTFSWPTPAACPVKSNIHDDCQVTNPSTGHLFDLSSLSGKAGITASYSEKGMVFMSICEENVNCSPGVGACFGQTRISVGQASKRLSYKDQVLQLVYENGSPCPSKSGLRYKSVISFVCRPEAGPTNRPMLISLDKQSCTLFFSWHTPLACEQATECTVRNGSSIIDLSPLIHRTGGYEAYDESEDDTSDTTPDFYINICQPLNPMHGVPCPAGASVCKVPVDGPPIDIGRVTGPPIFNPVANEVYLNFESSTPCLADKYMNYTSLIAFHCRRGISMVTRDAHTYSIGVCTTAADLDQEGCKDGGVCLLSGSKGASFGRLASMQLDYRHQDEAVILSYVNGDPCPPETEDGEPCVFPFIYKGETYDECVLEGRAKLWCSKTANYDRDHEWGFCRPSTLSICAKEYIKVPWTALREPAFARRVPLVKSRFWGLFILKNWKS
B1 showed a Kd 515 of 57.6 µM and a Kd 422 of 402 µM.
